Assay results from patent US6682731.

Target: HLA-A2 molecule (MHC class I heterodimer, no peptide of the filing added) (human)
Experiment: titration of peptide in 0.174 cell lysate, HLA-A2 stabilisation, immunoprecipitation with BB7.2
Conditions: remark: other sources report otherwise

ALSRKVAEL [peptide SEQ ID NO: 2, Ala Leu Ser Arg Lys Val Ala Glu Leu]
concentration at which the peptide titrated: 5 to 10 nM
